# Measurements: publication PMC9253567, “The Role of ZAP and TRIM25 RNA Binding in Restricting Viral Translation” (Frontiers in Cellular and Infection Microbiology, 2022)
# Target: T1, myc-tagged TRIM25 WT (tripartite motif-containing protein 25) (UniProt Q14258 1-630)
# T1 construct: tripartite motif-containing protein 25 (TRIM25), ubiquitin E3 ligase; full-length TRIM25 provided by J. U. Jung (Gack et al., 2007); source: ZAP KO 293T or TRIM25 KO 293T cells, transfected (pcDNA3.1-myc), in lysate; not shown: myc, N-terminal, kept
# Assay: co-IP; myc IP (anti-myc beads) of myc-TRIM25 WT from lysates of ZAP KO 293T cells co-transfected with FLAG-ZAPS or FLAG-ZAPL WT or mutants; FLAG-ZAP detected by immunoblot; FLAG IP buffer (100 mM Tris-HCl 8.0, 150 mM NaCl, 5 mM EDTA, 1 mM DTT, 5% glycerol, 0.1% NP-40), 4°C, 45 min; FLAG IP band divided by myc IP band (ImageJ)
# Details: partners not purified
# T1 sequence (Q14258 whole entry): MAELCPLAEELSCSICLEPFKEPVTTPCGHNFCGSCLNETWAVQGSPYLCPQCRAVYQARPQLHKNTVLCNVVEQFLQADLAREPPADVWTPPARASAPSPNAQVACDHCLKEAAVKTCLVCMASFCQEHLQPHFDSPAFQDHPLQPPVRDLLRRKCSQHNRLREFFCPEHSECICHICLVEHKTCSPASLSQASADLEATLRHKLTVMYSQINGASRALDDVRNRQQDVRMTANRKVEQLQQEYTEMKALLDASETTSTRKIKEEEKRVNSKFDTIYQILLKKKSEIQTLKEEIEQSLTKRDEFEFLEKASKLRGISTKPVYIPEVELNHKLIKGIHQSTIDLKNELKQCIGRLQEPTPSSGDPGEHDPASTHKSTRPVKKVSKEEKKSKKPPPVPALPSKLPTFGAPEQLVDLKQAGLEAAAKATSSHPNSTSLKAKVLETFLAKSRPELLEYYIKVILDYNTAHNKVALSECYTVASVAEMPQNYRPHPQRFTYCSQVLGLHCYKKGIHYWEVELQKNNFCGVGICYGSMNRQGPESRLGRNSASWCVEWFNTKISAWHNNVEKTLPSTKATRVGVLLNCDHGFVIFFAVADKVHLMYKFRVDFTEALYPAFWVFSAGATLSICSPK
row,Binder,"ZAP-TRIM25 interaction (co-IP, FLAG-ZAP band over myc-TRIM25 band, ImageJ)"
1,"FLAG-tagged ZAPS C88R (ZnF 2 mutant) (natural protein, human, UniProt Q7Z2W4-2 1-699, looked up, zinc finger antiviral protein (ZAP), short isoform ZAPS, cloned from pTRIP-TagRFP-hZAPS; source: ZAP KO 293T cells, transfected (pcDNA3.1-3XFLAG), in lysate; not shown: 3XFLAG, N-terminal, kept) MADPEVCCFITKILCAHGGRMALDALLQEIALSEPQLCEVLQVAGPDRFVVLETGGEAGITRSVVATTRARVCRRKYCQRPCDNLHLRKLNLLGRCNYSQSERNLCKYSHEVLSEENFKVLKNHELSGLNKEELAVLLLQSDPFFMPEICKSYKGEGRQQICNQQPPCSRLHICDHFTRGNCRFPNCLRSHNLMDRKVLAIMREHGLNPDVVQNIQDICNSKHMQKNPPGPRAPSSHRRNMAYRARSKSRDRFFQGSQEFLASASASAERSCTPSPDQISHRASLEDAPVDDLTRKFTYLGSQDRARPPSGSSKATDLGGTSQAGTSQRFLENGSQEDLLHGNPGSTYLASNSTSAPNWKSLTSWTNDQGARRKTVFSPTLPAARSSLGSLQTPEAVTTRKGTGLLSSDYRIINGKSGTQDIQPGPLFNNNADGVATDITSTRSLNYKSTSSGHREISSPRIQDAGPASRDVQATGRIADDADPRVALVNDSLSDVTSTTSSRVDDHDSEEICLDHLCKGCPLNGSCSKVHFHLPYRWQMLIGKTWTDFEHMETIEKGYCNPGIHLCSVGSYTINFRVMSCDSFPIRRLSTPSSVTKPANSVFTTKWIWYWKNESGTWIQYGEEKDKRKNSNVDSSYLESLYQSCPRGVVPFQAGSRNYELSFQGMIQTNIASKTQKDVIRRPTFVPQWYVQQMKRGPE",0.45
2,"FLAG-tagged ZAPS H176A/F184A/R189A (natural protein, human, UniProt Q7Z2W4-2 1-699, looked up, zinc finger antiviral protein (ZAP), short isoform ZAPS, cloned from pTRIP-TagRFP-hZAPS; also called ZAPS HFR; HFR; source: ZAP KO 293T cells, transfected (pcDNA3.1-3XFLAG), in lysate; not shown: 3XFLAG, N-terminal, kept) MADPEVCCFITKILCAHGGRMALDALLQEIALSEPQLCEVLQVAGPDRFVVLETGGEAGITRSVVATTRARVCRRKYCQRPCDNLHLCKLNLLGRCNYSQSERNLCKYSHEVLSEENFKVLKNHELSGLNKEELAVLLLQSDPFFMPEICKSYKGEGRQQICNQQPPCSRLHICDAFTRGNCRAPNCLASHNLMDRKVLAIMREHGLNPDVVQNIQDICNSKHMQKNPPGPRAPSSHRRNMAYRARSKSRDRFFQGSQEFLASASASAERSCTPSPDQISHRASLEDAPVDDLTRKFTYLGSQDRARPPSGSSKATDLGGTSQAGTSQRFLENGSQEDLLHGNPGSTYLASNSTSAPNWKSLTSWTNDQGARRKTVFSPTLPAARSSLGSLQTPEAVTTRKGTGLLSSDYRIINGKSGTQDIQPGPLFNNNADGVATDITSTRSLNYKSTSSGHREISSPRIQDAGPASRDVQATGRIADDADPRVALVNDSLSDVTSTTSSRVDDHDSEEICLDHLCKGCPLNGSCSKVHFHLPYRWQMLIGKTWTDFEHMETIEKGYCNPGIHLCSVGSYTINFRVMSCDSFPIRRLSTPSSVTKPANSVFTTKWIWYWKNESGTWIQYGEEKDKRKNSNVDSSYLESLYQSCPRGVVPFQAGSRNYELSFQGMIQTNIASKTQKDVIRRPTFVPQWYVQQMKRGPE",0.205
3,"FLAG-tagged ZAPS V72A/Y108A/F144A (natural protein, human, UniProt Q7Z2W4-2 1-699, looked up, zinc finger antiviral protein (ZAP), short isoform ZAPS, cloned from pTRIP-TagRFP-hZAPS; also called ZAPS VYF; VYF; source: ZAP KO 293T cells, transfected (pcDNA3.1-3XFLAG), in lysate; not shown: 3XFLAG, N-terminal, kept) MADPEVCCFITKILCAHGGRMALDALLQEIALSEPQLCEVLQVAGPDRFVVLETGGEAGITRSVVATTRARACRRKYCQRPCDNLHLCKLNLLGRCNYSQSERNLCKASHEVLSEENFKVLKNHELSGLNKEELAVLLLQSDPAFMPEICKSYKGEGRQQICNQQPPCSRLHICDHFTRGNCRFPNCLRSHNLMDRKVLAIMREHGLNPDVVQNIQDICNSKHMQKNPPGPRAPSSHRRNMAYRARSKSRDRFFQGSQEFLASASASAERSCTPSPDQISHRASLEDAPVDDLTRKFTYLGSQDRARPPSGSSKATDLGGTSQAGTSQRFLENGSQEDLLHGNPGSTYLASNSTSAPNWKSLTSWTNDQGARRKTVFSPTLPAARSSLGSLQTPEAVTTRKGTGLLSSDYRIINGKSGTQDIQPGPLFNNNADGVATDITSTRSLNYKSTSSGHREISSPRIQDAGPASRDVQATGRIADDADPRVALVNDSLSDVTSTTSSRVDDHDSEEICLDHLCKGCPLNGSCSKVHFHLPYRWQMLIGKTWTDFEHMETIEKGYCNPGIHLCSVGSYTINFRVMSCDSFPIRRLSTPSSVTKPANSVFTTKWIWYWKNESGTWIQYGEEKDKRKNSNVDSSYLESLYQSCPRGVVPFQAGSRNYELSFQGMIQTNIASKTQKDVIRRPTFVPQWYVQQMKRGPE",0.792
4,"FLAG-tagged ZAPS C96A/Y98A (natural protein, human, UniProt Q7Z2W4-2 1-699, looked up, zinc finger antiviral protein (ZAP), short isoform ZAPS, cloned from pTRIP-TagRFP-hZAPS; also called ZAPS CY; CY; source: ZAP KO 293T cells, transfected (pcDNA3.1-3XFLAG), in lysate; not shown: 3XFLAG, N-terminal, kept) MADPEVCCFITKILCAHGGRMALDALLQEIALSEPQLCEVLQVAGPDRFVVLETGGEAGITRSVVATTRARVCRRKYCQRPCDNLHLCKLNLLGRANASQSERNLCKYSHEVLSEENFKVLKNHELSGLNKEELAVLLLQSDPFFMPEICKSYKGEGRQQICNQQPPCSRLHICDHFTRGNCRFPNCLRSHNLMDRKVLAIMREHGLNPDVVQNIQDICNSKHMQKNPPGPRAPSSHRRNMAYRARSKSRDRFFQGSQEFLASASASAERSCTPSPDQISHRASLEDAPVDDLTRKFTYLGSQDRARPPSGSSKATDLGGTSQAGTSQRFLENGSQEDLLHGNPGSTYLASNSTSAPNWKSLTSWTNDQGARRKTVFSPTLPAARSSLGSLQTPEAVTTRKGTGLLSSDYRIINGKSGTQDIQPGPLFNNNADGVATDITSTRSLNYKSTSSGHREISSPRIQDAGPASRDVQATGRIADDADPRVALVNDSLSDVTSTTSSRVDDHDSEEICLDHLCKGCPLNGSCSKVHFHLPYRWQMLIGKTWTDFEHMETIEKGYCNPGIHLCSVGSYTINFRVMSCDSFPIRRLSTPSSVTKPANSVFTTKWIWYWKNESGTWIQYGEEKDKRKNSNVDSSYLESLYQSCPRGVVPFQAGSRNYELSFQGMIQTNIASKTQKDVIRRPTFVPQWYVQQMKRGPE",0.55
5,"FLAG-tagged ZAPS K107A/Y108A (natural protein, human, UniProt Q7Z2W4-2 1-699, looked up, zinc finger antiviral protein (ZAP), short isoform ZAPS, cloned from pTRIP-TagRFP-hZAPS; also called ZAPS KY; KY; source: ZAP KO 293T cells, transfected (pcDNA3.1-3XFLAG), in lysate; not shown: 3XFLAG, N-terminal, kept) MADPEVCCFITKILCAHGGRMALDALLQEIALSEPQLCEVLQVAGPDRFVVLETGGEAGITRSVVATTRARVCRRKYCQRPCDNLHLCKLNLLGRCNYSQSERNLCAASHEVLSEENFKVLKNHELSGLNKEELAVLLLQSDPFFMPEICKSYKGEGRQQICNQQPPCSRLHICDHFTRGNCRFPNCLRSHNLMDRKVLAIMREHGLNPDVVQNIQDICNSKHMQKNPPGPRAPSSHRRNMAYRARSKSRDRFFQGSQEFLASASASAERSCTPSPDQISHRASLEDAPVDDLTRKFTYLGSQDRARPPSGSSKATDLGGTSQAGTSQRFLENGSQEDLLHGNPGSTYLASNSTSAPNWKSLTSWTNDQGARRKTVFSPTLPAARSSLGSLQTPEAVTTRKGTGLLSSDYRIINGKSGTQDIQPGPLFNNNADGVATDITSTRSLNYKSTSSGHREISSPRIQDAGPASRDVQATGRIADDADPRVALVNDSLSDVTSTTSSRVDDHDSEEICLDHLCKGCPLNGSCSKVHFHLPYRWQMLIGKTWTDFEHMETIEKGYCNPGIHLCSVGSYTINFRVMSCDSFPIRRLSTPSSVTKPANSVFTTKWIWYWKNESGTWIQYGEEKDKRKNSNVDSSYLESLYQSCPRGVVPFQAGSRNYELSFQGMIQTNIASKTQKDVIRRPTFVPQWYVQQMKRGPE",0.33
6,"FLAG-tagged ZAPS E148A/K151A/R170A (natural protein, human, UniProt Q7Z2W4-2 1-699, looked up, zinc finger antiviral protein (ZAP), short isoform ZAPS, cloned from pTRIP-TagRFP-hZAPS; also called ZAPS EKR; EKR; source: ZAP KO 293T cells, transfected (pcDNA3.1-3XFLAG), in lysate; not shown: 3XFLAG, N-terminal, kept) MADPEVCCFITKILCAHGGRMALDALLQEIALSEPQLCEVLQVAGPDRFVVLETGGEAGITRSVVATTRARVCRRKYCQRPCDNLHLCKLNLLGRCNYSQSERNLCKYSHEVLSEENFKVLKNHELSGLNKEELAVLLLQSDPFFMPAICASYKGEGRQQICNQQPPCSALHICDHFTRGNCRFPNCLRSHNLMDRKVLAIMREHGLNPDVVQNIQDICNSKHMQKNPPGPRAPSSHRRNMAYRARSKSRDRFFQGSQEFLASASASAERSCTPSPDQISHRASLEDAPVDDLTRKFTYLGSQDRARPPSGSSKATDLGGTSQAGTSQRFLENGSQEDLLHGNPGSTYLASNSTSAPNWKSLTSWTNDQGARRKTVFSPTLPAARSSLGSLQTPEAVTTRKGTGLLSSDYRIINGKSGTQDIQPGPLFNNNADGVATDITSTRSLNYKSTSSGHREISSPRIQDAGPASRDVQATGRIADDADPRVALVNDSLSDVTSTTSSRVDDHDSEEICLDHLCKGCPLNGSCSKVHFHLPYRWQMLIGKTWTDFEHMETIEKGYCNPGIHLCSVGSYTINFRVMSCDSFPIRRLSTPSSVTKPANSVFTTKWIWYWKNESGTWIQYGEEKDKRKNSNVDSSYLESLYQSCPRGVVPFQAGSRNYELSFQGMIQTNIASKTQKDVIRRPTFVPQWYVQQMKRGPE",0.189
7,"FLAG-tagged ZAPL C96A/Y98A (natural protein, human, UniProt Q7Z2W4-1 1-902, looked up, zinc finger antiviral protein (ZAP), long isoform ZAPL, cloned from pTRIP-TagRFP-hZAPL; also called ZAPL CY; CY; source: ZAP KO 293T cells, transfected (pcDNA3.1-3XFLAG), in lysate; not shown: 3XFLAG, N-terminal, kept) MADPEVCCFITKILCAHGGRMALDALLQEIALSEPQLCEVLQVAGPDRFVVLETGGEAGITRSVVATTRARVCRRKYCQRPCDNLHLCKLNLLGRANASQSERNLCKYSHEVLSEENFKVLKNHELSGLNKEELAVLLLQSDPFFMPEICKSYKGEGRQQICNQQPPCSRLHICDHFTRGNCRFPNCLRSHNLMDRKVLAIMREHGLNPDVVQNIQDICNSKHMQKNPPGPRAPSSHRRNMAYRARSKSRDRFFQGSQEFLASASASAERSCTPSPDQISHRASLEDAPVDDLTRKFTYLGSQDRARPPSGSSKATDLGGTSQAGTSQRFLENGSQEDLLHGNPGSTYLASNSTSAPNWKSLTSWTNDQGARRKTVFSPTLPAARSSLGSLQTPEAVTTRKGTGLLSSDYRIINGKSGTQDIQPGPLFNNNADGVATDITSTRSLNYKSTSSGHREISSPRIQDAGPASRDVQATGRIADDADPRVALVNDSLSDVTSTTSSRVDDHDSEEICLDHLCKGCPLNGSCSKVHFHLPYRWQMLIGKTWTDFEHMETIEKGYCNPGIHLCSVGSYTINFRVMSCDSFPIRRLSTPSSVTKPANSVFTTKWIWYWKNESGTWIQYGEEKDKRKNSNVDSSYLESLYQSCPRGVVPFQAGSRNYELSFQGMIQTNIASKTQKDVIRRPTFVPQWYVQQMKRGPDHQPAKTSSVSLTATFRPQEDFCFLSSKKYKLSEIHHLHPEYVRVSEHFKASMKNFKIEKIKKIENSELLDKFTWKKSQMKEEGKLLFYATSRAYVESICSNNFDSFLHETHENKYGKGIYFAKDAIYSHKNCPYDAKNVVMFVAQVLVGKFTEGNITYTSPPPQFDSCVDTRSNPSVFVIFQKDQVYPQYVIEYTEDKACVIS",0.329
